T1: B1 basic leucine zipper protein
T1 sequence: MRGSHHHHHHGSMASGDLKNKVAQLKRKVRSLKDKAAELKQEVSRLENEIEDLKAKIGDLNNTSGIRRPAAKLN


What was measured:
[1] = target: T1, B1 basic leucine zipper protein; assay: urea denaturation of the equimolar mixture followed by CD at 222 nm; difference in the free energies of unfolding at 50% unfolded
[2] = target: A1 acidic leucine zipper protein; assay: analytical ultracentrifugation of protein solutions (24 to 220 µM); self-association of A1 dimers to tetramers; 95% confidence limits printed as (50-112)
[3] = target: A1 acidic leucine zipper protein; assay: urea denaturation followed by CD at 222 nm, two-state model; ΔGu from lnKd,u (dissociation of the dimers) extrapolated to zero denaturant
[4] = target: A1 acidic leucine zipper protein; assay: urea denaturation followed by CD at 222 nm; difference in the free energies of unfolding at 50% unfolded
[5] = target: T1, B1 basic leucine zipper protein; assay: urea denaturation of the equimolar mixture followed by CD at 222 nm, two-state model; ΔGu from lnKd,u (dissociation of the dimers) extrapolated to zero denaturant
[6] = target: T1, B1 basic leucine zipper protein; assay: urea denaturation followed by CD at 222 nm, two-state model; ΔGu from lnKd,u (dissociation of the dimers) extrapolated to zero denaturant
[7] = target: T1, B1 basic leucine zipper protein; assay: urea denaturation followed by CD at 222 nm; difference in the free energies of unfolding at 50% unfolded
[8] = target: T1, B1 basic leucine zipper protein; assay: analytical ultracentrifugation of protein solutions (24 to 220 µM); self-association of B1 dimers to tetramers; 95% confidence limits printed as (1-6)

ΔΔGu [1] [kcal/mol] | Dimer-Tetramer Kd [2] [µM] | ΔGu [3] [kcal/mol] | ΔΔGu [4] [kcal/mol] | ΔGu [5] [kcal/mol] | ΔGu [6] [kcal/mol] | ΔΔGu [7] [kcal/mol] | Dimer-Tetramer Kd [8] [µM] | Binder
2.75 | 76 | 11.5 | 0 | 13.8 |  |  |  | A1 acidic leucine zipper protein (designed binder) MRGSHHHHHHGSMASGDLENEVAQLEREVRSLEDEAAELEQKVSRLKNEIEDLKAEIGDLNNTSGIRRPAAKLN
 |  |  |  |  | 12.6 | 0.13 | 123 | B1 basic leucine zipper protein (designed binder) MRGSHHHHHHGSMASGDLKNKVAQLKRKVRSLKDKAAELKQEVSRLENEIEDLKAKIGDLNNTSGIRRPAAKLN

Reference: patent US6090911
